Our source for the log10 fold change of luciferase signal against wild-type CmrT (log10 fold change), binding and log10 fold luciferase activity over the negative control values is PMC12548384.

Series [1] deals with CmrT-D9A fused to the smbit or lgbit portion of split luciferase (C. difficile two-hybrid) (Clostridioides difficile R20291). In words: split reporter (BiFC, NanoBiT); C. difficile bacterial two-hybrid with split luciferase (smbit, lgbit) from one ATc-inducible transcript; 200 ng/mL ATc for 1 h in BHIS-Tm10; Nano-Glo reagent; luminescence per OD600.
Series [2] deals with T1, CmrR (Clostridioides difficile R20291) (UniProt A0A9R0CG09).
T1 sequence: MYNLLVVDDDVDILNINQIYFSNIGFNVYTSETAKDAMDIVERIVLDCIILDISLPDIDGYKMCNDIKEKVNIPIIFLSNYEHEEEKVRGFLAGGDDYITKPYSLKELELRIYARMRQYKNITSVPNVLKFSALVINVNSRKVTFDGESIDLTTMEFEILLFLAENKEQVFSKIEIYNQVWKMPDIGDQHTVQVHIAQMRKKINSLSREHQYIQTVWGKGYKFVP
As to the kind of experiment: EMSA. Conditions: EMSA: 15 nM probe, 1x binding buffer 20 mM Tris pH 8, 1 mM EDTA, 10 mM MgCl2, 100 mM NaCl, 5% glycerol, plus half volume protein in His6 buffer (10 mM Tris …). A general note: In EMSA bound probe runs differently from free probe, usually more slowly.

In series [3] the target is CmrT-K102A fused to the smbit or lgbit portion of split luciferase (C. difficile two-hybrid) (Clostridioides difficile R20291). In words: split reporter (BiFC, NanoBiT); C. difficile bacterial two-hybrid with split luciferase (smbit, lgbit) from one ATc-inducible transcript; 200 ng/mL ATc for 1 h in BHIS-Tm10; Nano-Glo reagent; luminescence per OD600.
The target of series [4] is CmrT fused to the smbit or lgbit portion of split luciferase (C. difficile two-hybrid) (Clostridioides difficile R20291). The series is described as above.

In the case of “CmrT-D9A fused to the smbit or lgbit portion of split luciferase (C. difficile two-hybrid) (natural protein)”, the log10 fold change of luciferase signal against wild-type CmrT (log10 fold change) in series [1] was -1.27.
For “GCCAAAATTTCACCTATCAATAAAAATCTTAACGACTAATACTCTTATTTTCAAATTTTGCAACATTTTTGTTAATTTTAAAGCAAAAAAAGACTATGCAATATAAAAATTATATTCATAGCCGGTTGCACCACTAACTCCATATATCTCC (double strand) [probe 2]”, in series [2], the binding result was “no binding”.
As to “CmrT-K102A fused to the smbit or lgbit portion of split luciferase (C. difficile two-hybrid) (natural protein)”, in series [3], the log10 fold change of luciferase signal against wild-type CmrT (log10 fold change) was -0.64.
On to “CTAGCCAATAGACAAGTTTCTAGAAAAATAATAAATTTATAAGTGAAAATGACTTTAAGCTCCATTCTCCAACAATCGGAGACTTTAATTAGTATTTAATAATAAATCTTAATGTTCAATACAATATTCAAGAATTGTTCAAAAATACTTAAG (double strand) [probe 9 (cmr switch in other orientation than probe 6)]”, for which the binding result in series [2] is given as “binds”.
For the substance “ATTCAAGAATTGTTCAAAAATACTTAAGTATTATAGTCTAGTTTGTAAAGATATTATAAAATAATAATACTAGTTATATATGAAAATAAAACATTATAATTTGTAATAATTATAAAACTTGAGATTATGATTAAAATACCTTTGAATGGAGTGGTGTAATGTATAATTTACTGGTTGTAGATGATGATGTTG (double strand) [probe 4 (TSS4, 192 bp)]”, the binding entry in series [2] is “binds more weakly”.
Same read-out and setting: next, “TTGCACCACTAACTCCATATATCTCCAGATGCCCAATAATAAGATATACTTCTCAGTTTCTAAAATATTTTTATTAAAAATCTTTTATATATTTTCATAAATTTCTTTTTTATTCTAACATTGTAATATTATTTTGTCAATATTTCCATATTTTTAGATATAAGATACTAAAATACCTATTTTATCTAAAGATATTTATATTTCTACATTCAATAATAGACAATACCCTGCAAGTTAAAGCATC (double strand) [probe 1 (upstream of TSS1)]”: “no binding”.
Substance “CmrT fused to the smbit or lgbit portion of split luciferase (C. difficile two-hybrid) (natural protein)” had a log10 fold luciferase activity over the negative control in series [4] of 3.6 log10 fold.
Take “GTATTTAATAATAAATCTTAATGTTCAATACAATATTCAAGAATTGTTCAAAAATACTTAAGTATTATAGTCTAGTTTGTAAAGATATTATAAAATAATAATACTAGTTATATATGAAAATAAAACATTATAATTTGTAATAATTATAAAACTTGAGATTATGATTAAAATACCTTTGAATGGAGTGGTGTAATGTATAATTTACTGGTTGTAGATGATGATGTTG (double strand) [probe 7 (TSS4, 226 bp)]”: the binding result in series [2] was “binds”.
